Data from article PMC5626966, “Molecular and Physiological Logics of the Pyruvate-Induced Response of a Novel Transporter in Bacillus subtilis” (mBio, 2017).

How the values were obtained:
[1] = biological target: T1, PftAB (YsbAB) pyruvate-facilitated transporter (Bacillus subtilis, UniProt P94515+P94516); test: transport in growing cells, extracellular pyruvate by HPLC, fit of facilitated transport model; type: cell-based; settings: B. subtilis cells, M9 minimal medium; model estimate of facilitated transport (Text S1, Table S2)
T1 construct: gene lrgA; full-length untagged pftAB in B. subtilis cells (WT, delta-pftAB, IPTG-inducible Phs-pftAB strains)
T1 sequence (P94515 whole entry): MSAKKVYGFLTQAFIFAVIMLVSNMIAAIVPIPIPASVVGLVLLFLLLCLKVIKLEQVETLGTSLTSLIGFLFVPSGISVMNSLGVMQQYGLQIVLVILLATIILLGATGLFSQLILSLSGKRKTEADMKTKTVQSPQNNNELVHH
T1 sequence (P94516 whole entry): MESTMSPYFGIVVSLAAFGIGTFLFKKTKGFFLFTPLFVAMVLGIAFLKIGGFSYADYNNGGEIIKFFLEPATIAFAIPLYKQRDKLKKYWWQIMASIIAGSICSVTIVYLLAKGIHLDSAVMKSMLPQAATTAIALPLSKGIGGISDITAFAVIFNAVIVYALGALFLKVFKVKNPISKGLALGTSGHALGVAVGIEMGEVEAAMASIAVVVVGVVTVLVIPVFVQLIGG

[2] = biological target: T2, LytT (His6-LytT) (Bacillus subtilis (168?)) (UniProt P94514); test: EMSA; settings: EMSA: LytT with 50 ng DNA and 50 µg/ml poly(dI-dC); CcpA with 10 ng DNA and 400 µg/ml salmon sperm DNA; 6% or 8% native acrylamide gel in TAE; binding buffer …
T2 sequence: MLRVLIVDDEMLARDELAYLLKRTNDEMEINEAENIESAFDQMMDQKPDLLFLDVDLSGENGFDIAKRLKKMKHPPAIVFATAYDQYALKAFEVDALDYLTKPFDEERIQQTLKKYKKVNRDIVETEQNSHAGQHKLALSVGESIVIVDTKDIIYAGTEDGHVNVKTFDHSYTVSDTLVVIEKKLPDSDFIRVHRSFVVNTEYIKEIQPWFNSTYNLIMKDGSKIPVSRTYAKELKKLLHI

| Compound | Km (apparent affinity constant) [1] | binding [2] |
| --- | --- | --- |
| CC(=O)C(=O)O [pyruvate] | ~ 1.0 ± 0.1 mmol ⋅ liter^−1 | – |
| CCATGGTTTAATTCAACGTATAATCTGATCATGAAAGACGGATCGAAAATACCGGTCAGCCGGACATATGCGAAGGAATTGAAAAAGCTGCTCCATATTTGATGGGCGGCTTTTTGCATTTCAGCCATTTGATTCTGCAACTCAGACCCGCTATACGGCATGTTATCTTGTAAGCGCTTTATAACAGGGAATTCTTATTTATAATGAGGGTACCAAAGAGAAAGAGGTGAAGAAAATGAGTGCTAAAAAAGTGTACG (double strand) [PpftAB 257 bp] | – | binds |
| CCATGGTTTAATTCAACGTATAATCTGATCATGAAAGACGGATCGAAAATACCGGTCAGCCGGACATATGCGAAGGAATTGAAAAAGCTGCTCCATATTTGATGGGCGGCTTTTTGCATTTCAGCCATTTGATTCTGCAACTCAGACCCGCTATACGGCATGTTATCTTGTAAGCGCTTTATAACAGGGAATTCTTATTTATAATGAGGGTACCAAAGAGAAAGAGGTGAAGAAAATGAGTGCTAAAAAAGTGTACG (double strand) [PpftAB reporter strain fragment 267 bp] | – | binds |
